Measurements as given in paper PMC7098737.
“And” between values parts separate entries of the source, which are not always exact repeats. Equal entries are not always repeated.

What was measured:
[1] = target: M2-Strep-tag II fusion protein (Strep II tag, 6xHis tag, full-length human MBL2) (human) (UniProt P11226); experiment: native gel or EMSA; native PAGE of purified M1 and of purified M2; oligomer size from the apparent molecular weight against the monomer's size by SDS-PAGE; for M2 the names trimer, tetramer, pentamer count subunits of three 32-kDa chains
[2] = target: recombinant human mannan-binding lectin M1 (6xHis, MAKT, human IgG1 Fc C220-G446, Arg linker, human MBL2 neck and CRD 81-228) (human) (UniProt P11226); experiment: as above

stoichiometry N [1] | stoichiometry N [2] [monomers] | Substance
4 and 3 and 5 |  | M2-Strep-tag II fusion protein (Strep II tag, 6xHis tag, full-length human MBL2) (from UniProt P11226 21-248) (natural protein)
 | 6 | recombinant human mannan-binding lectin M1 (6xHis, MAKT, human IgG1 Fc C220-G446, Arg linker, human MBL2 neck and CRD 81-228) (from UniProt P11226 101-248) (Fc fusion)
